From patent US20220267464A1
Read-outs that look alike come from different tables or passages of the source.

Legend:
[1] = molecular target: human 4-1BB on Jurkat-hu4-1BB-NFκB-luc2 reporter cells (human) (UniProt Q07011); assay: cell-based or functional assay; set-up: AUC of activation curve, Jurkat-hu4-1BB-NFκB-luc2, no CEA+ cells / AUC of activation curve, Jurkat-hu4-1BB-NFκB-luc2 with CHO-k1-cyno CEACAM5 clone 8: unit not given beside the values
[2] = molecular target: human CEACAM5 (carcinoembryonic antigen, CEA) on cells (human) (UniProt P06731); assay: flow cytometry, CHO-k1-huCEACAM5 clone 17; set-up: unit not given beside the values
Chain of human CEACAM5 (carcinoembryonic antigen, CEA) on cells (human) (P06731 35-685 E398K limits assumed): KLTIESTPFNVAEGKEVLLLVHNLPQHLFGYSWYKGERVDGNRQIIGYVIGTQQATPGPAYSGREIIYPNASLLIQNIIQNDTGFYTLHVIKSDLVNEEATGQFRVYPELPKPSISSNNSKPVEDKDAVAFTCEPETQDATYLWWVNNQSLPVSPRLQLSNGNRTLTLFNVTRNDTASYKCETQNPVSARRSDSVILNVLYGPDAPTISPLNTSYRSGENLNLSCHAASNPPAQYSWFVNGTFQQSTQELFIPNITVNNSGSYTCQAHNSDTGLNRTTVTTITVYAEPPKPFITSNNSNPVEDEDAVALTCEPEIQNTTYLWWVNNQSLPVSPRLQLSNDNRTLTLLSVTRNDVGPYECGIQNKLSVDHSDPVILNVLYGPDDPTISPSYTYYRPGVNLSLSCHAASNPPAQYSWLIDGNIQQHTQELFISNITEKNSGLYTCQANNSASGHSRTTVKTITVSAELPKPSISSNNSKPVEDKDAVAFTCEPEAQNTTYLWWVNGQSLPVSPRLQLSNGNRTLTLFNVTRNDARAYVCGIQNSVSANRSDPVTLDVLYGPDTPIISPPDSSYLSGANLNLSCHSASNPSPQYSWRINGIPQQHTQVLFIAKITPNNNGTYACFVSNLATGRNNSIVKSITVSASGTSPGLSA

[3] = molecular target: human CEACAM5 (carcinoembryonic antigen, CEA) on cells (human) (UniProt P06731); assay: flow cytometry, CHO-k1-huCEACAM5 clone 12; set-up: unit not given beside the values
[4] = molecular target: human CEACAM5 (carcinoembryonic antigen, CEA) on cells (human) (UniProt P06731); assay: flow cytometry, CHO-k1-huCEACAM5 clone 11; set-up: unit not given beside the values
[5] = molecular target: cynomolgus monkey CEACAM5 on CHO-k1-cynoCEACAM5 clone 8 cells (cynomolgus monkey); assay: flow cytometry, CHO-k1-cynoCEACAM5 clone 8; set-up: unit not given beside the values
[6] = molecular target: human CEACAM5 (carcinoembryonic antigen, CEA) on cells (human) (UniProt P06731); assay: flow cytometry, CHO-k1-huCEACAM5 clone 12; set-up: unit not given beside the values; remark: listed apart in the source
[7] = molecular target: human CEACAM5 (carcinoembryonic antigen, CEA) on cells (human) (UniProt P06731); assay: flow cytometry, CHO-k1-huCEACAM5 clone 13; set-up: unit not given beside the values
[8] = molecular target: human CEACAM5 (carcinoembryonic antigen, CEA) on cells (human) (UniProt P06731); assay: flow cytometry, CHO-k1-huCEACAM5 clone 11; set-up: unit not given beside the values; remark: listed apart in the source
[9] = molecular target: cynomolgus monkey CEACAM5 on CHO-k1-cynoCEACAM5 clone 8 cells (cynomolgus monkey); assay: cell-based or functional assay; set-up: AUC of activation curve, Jurkat-hu4-1BB-NFκB-luc2, no CEA+ cells / AUC of activation curve, Jurkat-hu4-1BB-NFκB-luc2 with CHO-k1-cyno CEACAM5 clone 8: unit not given beside the values
[10] = molecular target: human CEACAM5 (carcinoembryonic antigen, CEA) on cells (human) (UniProt P06731); assay: cell-based or functional assay; set-up: AUC of activation curve, Jurkat-hu4-1BB-NFκB-luc2, no CEA+ cells / AUC of activation curve, Jurkat-hu4-1BB-NFκB-luc2 with CHO-k1-cyno CEACAM5 clone 8: unit not given beside the values
[11] = molecular target: cynomolgus monkey CEACAM5 on CHO-k1-cynoCEACAM5 clone 8 cells (cynomolgus monkey); assay: flow cytometry, CHO-k1-cynoCEACAM5 clone 8; set-up: unit not given beside the values; remark: listed apart in the source
[12] = molecular target: human CEACAM5 (carcinoembryonic antigen, CEA) on cells (human) (UniProt P06731); assay: cell-based or functional assay
[13] = molecular target: human CEACAM5 (carcinoembryonic antigen, CEA) on cells (human) (UniProt P06731); assay: flow cytometry, MKN45 cells; set-up: unit not given beside the values

Chain of human 4-1BB on Jurkat-hu4-1BB-NFκB-luc2 reporter cells (human) (Q07011 24-255 limits assumed): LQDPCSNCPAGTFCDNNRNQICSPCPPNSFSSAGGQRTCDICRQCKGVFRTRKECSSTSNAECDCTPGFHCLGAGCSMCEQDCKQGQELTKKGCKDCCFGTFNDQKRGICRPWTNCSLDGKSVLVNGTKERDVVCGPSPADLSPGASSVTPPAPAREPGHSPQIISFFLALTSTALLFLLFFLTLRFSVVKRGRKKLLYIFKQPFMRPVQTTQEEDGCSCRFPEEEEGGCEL

Substance	AUC of activation curve, Jurkat-hu4-1BB-NFκB-luc2, no CEA+ cells [1]	AUC of activation curve, Jurkat-hu4-1BB-NFκB-luc2 with CHO-k1-cyno CEACAM5 clone 8 [9]	AUC of activation curve, Jurkat-hu4-1BB-NFκB-luc2 with CHO-k1-human CEACAM5 clone 11 [10]	AUC of activation curve, Jurkat-hu4-1BB-NFκB-luc2 with CHO-k1-human CEACAM5 clone 12 [10]	EC50, NFκB-luciferase in Jurkat-hu4-1BB-NFκB-luc2 with CHO-k1-human CEACAM5 clone 11 [12] [nM]	EC50, NFκB-luciferase in Jurkat-hu4-1BB-NFκB-luc2 with CHO-k1-human CEACAM5 clone 12 [12] [nM]	further results
CEA (MEDI-565)-4-1BBL (Fc fusion)	2270	–	–	–	–	–	–
DP47-4-1BBL (Fc fusion)	2930	4710	8640	6640	–	–	AUC [2]: 430; AUC [3]: 140; AUC [4]: 148; AUC [5]: 520; AUC [6]: 700; AUC [7]: 752; AUC [8]: 1300; AUC [11]: 11
CEA(sm9b)-4-1BBL single chain (Fc fusion)	1980	2820	150000	146000	0.09	0.07	–
P1AD5108-002 DP47 huIgG1 PG LALA (Isotype control) (antibody)	–	–	–	–	–	–	AUC [13]: 420
CEA(sm9b)-4-1BBL (Fc fusion)	2810	3970	162000	164000	0.05	0.03	–
